Reference: US20240150440A1 (LUMEN BIOSCIENCE, published 2024)
“And” between values parts separate entries of the source, which are not always exact repeats. Equal entries are not always repeated.

Columns and labels:
[1] = target: T1, SARS-CoV-2 Alpha Variant RBD (SARS-CoV-2 Alpha variant); experiment: ELISA, RBD coated
T1 construct: domain: RBD; coated on ELISA plates

[2] = target: T2, SARS-CoV-2 Delta Variant RBD (SARS-CoV-2 Delta variant); experiment: ELISA, RBD coated
T2 construct: domain: RBD; coated on ELISA plates

[3] = target: SARS-CoV-2 Gamma Variant spike protein on pseudotyped lentivirus (SARS-CoV-2 Gamma variant); experiment: cell-based or functional assay
[4] = target: T3, SARS-CoV-2 spike protein on pseudotyped lentivirus (Wuhan Reference Pseudovirus) (SARS-CoV-2, UniProt P0DTC2 14-1273); experiment: cell-based or functional assay
[5] = target: T3, SARS-CoV-2 spike protein on pseudotyped …; experiment: cell-based or functional assay; remark: listed apart in the source
[6] = target: T3, SARS-CoV-2 spike protein on pseudotyped …; experiment: cell-based or functional assay; remark: listed apart in the source
[7] = target: T4, SARS-CoV-2 Gamma Variant RBD (SARS-CoV-2 Gamma variant); experiment: ELISA, RBD coated
T4 construct: domain: RBD; coated on ELISA plates

[8] = target: T5, SARS-CoV-2 Beta Variant RBD (SARS-CoV-2 Beta variant); experiment: ELISA, RBD coated
T5 construct: domain: RBD; coated on ELISA plates

[9] = target: SARS-CoV-2 Delta Variant spike protein on pseudotyped lentivirus (SARS-CoV-2 Delta variant); experiment: cell-based or functional assay
[10] = target: T3, SARS-CoV-2 spike protein on pseudotyped …; experiment: cell-based or functional assay; remark: listed apart in the source

B1: PP1153 MBP-5HVZ-PAPA-R5d-D4-H6 (VHH)
VHH: QVQLVESGGGLVQPGGSLRLSCAASGSDFTINAMHWFRQAPGKQREFVATITSTSSTAYRDSVKGRFTISRDNAKNTVYLQMNSLKPEDTAVYYCAAFAVRDADTAGWTARDYWGQGTQVTVSS
notes: Form: Dimer
[1]
  EC50: 0.91 nM
[2]
  EC50: 223 nM
[3]
  Pseudovirus neutralization IC50: 62.9 nM
[4]
  infectivity % under 10 ug/mL VHH treatment: 81.7%

B2: PP1133 MBP-4B0F-PAPA-R2d-A6-H6 (VHH)
VHH: QVQLVESGGGLVQPGGSLRLSCAASGSGASIGAMHWFRQAPGKGREWVASITSAGNTYYGDSVKGRFTISRDNAKNTVYLQMNSLKPEDTAVYYCNALAGANYESQWEEYNYWGQGTQVTVSS
notes: Form: Heptamer
[5]
  Pseudovirus neutralization IC50: 186 nM
[6]
  Pseudovirus inhibition IC50 [Cont. 1]: 180 nM
[4]
  infectivity % under 10 ug/mL VHH treatment: 48.1%

B3: PP1157 MPB-scTRP-PAPA-R2d-A6-H6 (VHH)
VHH: QVQLVESGGGLVQPGGSLRLSCAASGSGASIGAMHWFRQAPGKGREWVASITSAGNTYYGDSVKGRFTISRDNAKNTVYLQMNSLKPEDTAVYYCNALAGANYESQWEEYNYWGQGTQVTVSS
notes: Form: Trimer
[5]
  Pseudovirus neutralization IC50: 18.9 nM and 19.8 nM
[6]
  Pseudovirus inhibition IC50 [Cont. 1]: 54.4 nM
[4]
  infectivity % under 10 ug/mL VHH treatment: 32.9%

B4: PP1103 MBP-5HVZ-PAPA-RN-18-H6 (VHH)
VHH: QVQLVESGGGLVQPGGSLRLSCAASGYYFQIVAMHWYRQAPGKEREGVAGITSTGSTYYGDSVKGRFTISRDNAKNTVYLQMNSLKPEDTAVYYCNAVSTDAQGAAEYWGQGTQVTVSS
notes: Form: Dimer
[1]
  EC50: 1.45 nM
[7]
  EC50: 92.8 nM
[2]
  EC50: 2.69 nM
[8]
  EC50: 227 nM
[9]
  Pseudovirus neutralization IC50: 2.49 nM
[4]
  infectivity % under 10 ug/mL VHH treatment: 57.6%

B5: PP900 MBP-5HVZ-R5a-F2-H6 (VHH)
VHH: QVQLVESGGGLVQPGGSLRLSCAASGSISSIEAMSWFRQAPGKQREGVATMASGGDTSYADSVKGRFTISRDNAKNTVYLQMNSLKPEDTAVYYCAAQTYRPDTWGRYTFWGQGTQVTVSS
notes: Form: Dimer
[1]
  EC50: 34 nM
[7]
  EC50: 340 nM
[8]
  EC50: 709 nM
[5]
  Pseudovirus neutralization IC50: 29.6 nM
[4]
  infectivity % under 10 ug/mL VHH treatment: 18.3%
[10]
  Pseudovirus inhibition IC50 [Cont. 6]: 59.3 nM

B6: PP908 MBP-5HVZ-S2a-C4-H6 (VHH)
VHH: QVQLVESGGGLVQPGGSLRLSCAASGFSESINATAWFRQAPGKQREGVAGLDGGGSDYYSDSVKGRFTISRDNAKNTVYLQMNSLKPEDTAVYYCAAQLTSSFRGYDFTPSNYDYWGQGTQVTVSS
notes: Form: Dimer
[1]
  EC50: 1.74 nM
[7]
  EC50: 3.75 nM
[2]
  EC50: 2.15 nM
[8]
  EC50: 7.42 nM
[5]
  Pseudovirus neutralization IC50: 1620 nM
[3]
  Pseudovirus neutralization IC50: 63.1 nM
[4]
  infectivity % under 10 ug/mL VHH treatment: 47.5%

B7: PP934 MBP-5HVZ-S3a-H2-H6 (VHH)
VHH: QVQLVESGGGLVQPGGSLRLSCAASGAAFSKNALHWFRQAPGKGREWVASITSGSGTQYMDSVKGRFTISRDNAKNTVYLQMNSLKPEDTAVYYCAALAYSGGYDYWGQGTQVTVSS
notes: Form: Dimer
[1]
  EC50: 1.56 nM
[7]
  EC50: 4.78 nM
[8]
  EC50: 13.5 nM
[3]
  Pseudovirus neutralization IC50: 46300 nM

B8: PP1106 MBP-5HVZ-PAPA-RN-21-H6 (VHH)
VHH: QVQLVESGGGLVQPGGSLRLSCAASGLQTSDNAMHWFRQAPGKNRELVAGLTSGTSRNYGDSVKGRFTISRDNAKNTVYLQMNSLKPEDTAVYYCAAFPDVGDASSIGFVYWGQGTQVTVSS
notes: Form: Dimer
[1]
  EC50: 2.05 nM
[7]
  EC50: 7.84 nM
[8]
  EC50: 3.17 nM
[3]
  Pseudovirus neutralization IC50: 63.4 nM
[4]
  infectivity % under 10 ug/mL VHH treatment: 76.6%

B9: PP1102 MBP-5HVZ-PAPA-RN-17-H6 (VHH)
VHH: QVQLVESGGGLVQPGGSLRLSCAASGSMYSRAVMHWFRQAPGKEREGVASIGRTGDSYYADSVKGRFTISRDNAKNTVYLQMNSLKPEDTAVYYCAADNLDVVYGNRYWGQGTQVTVSS
notes: Form: Dimer
[1]
  EC50: 1.55 nM
[7]
  EC50: 1.26 nM
[8]
  EC50: 2 nM
[5]
  Pseudovirus neutralization IC50: ~5110 nM
[3]
  Pseudovirus neutralization IC50: 21.5 nM
[4]
  infectivity % under 10 ug/mL VHH treatment: 40.9%

B10: PP903 MBP-5HVZ-R1i-A11-H6 (VHH)
VHH: QVQLVESGGGLVQPGGSLRLSCAASGSILQINAIHWFRQAPGKQREEVAAITSGGSTGYADSVKGRFTISRDNAKNTVYLQMNSLKPEDTAVYYCAATSTRGGLDSDYWGQGTQVTVSS
notes: Form: Dimer
[1]
  EC50: 0.28 nM
[2]
  EC50: 0.26 nM
[5]
  Pseudovirus neutralization IC50: 56.7 nM
[4]
  infectivity % under 10 ug/mL VHH treatment: 38.4%
[10]
  Pseudovirus inhibition IC50 [Cont. 6]: 50.4 nM

B11: PP899 MBP-5HVZ-R5a-B5-H6 (VHH)
VHH: QVQLVESGGGLVQPGGSLRLSCAASGDDFIENAISWYRQAPGKGREWVAAVTLGGHSNYADSVKGRFTISRDNAKNTVYLQMNSLKPEDTAVYYCNYPVGIPAVAIDGRRSYGYWGQGTQVTVSS
notes: Form: Dimer
[5]
  Pseudovirus neutralization IC50: 2.29 nM
[4]
  infectivity % under 10 ug/mL VHH treatment: 2.43%
[10]
  Pseudovirus inhibition IC50 [Cont. 6]: 5.25 nM

B12: PP1144 MBP-5HVZ-PAPA-R2c-F6-H6 (VHH)
VHH: QVQLVESGGGLVQPGGSLRLSCAASGRILAANIVHWYRQAPGKEREGVAGITTGGSNYYSDSVKGRFTISRDNAKNTVYLQMNSLKPEDTAVYYCNALGLGSASGSYESWGQGTQVTVSS
notes: Form: Dimer
[5]
  Pseudovirus neutralization IC50: 11.9 nM
[6]
  Pseudovirus inhibition IC50 [Cont. 1]: 2.75 nM
[4]
  infectivity % under 10 ug/mL VHH treatment: 9.18%

B13: PP1156 MPB-scTRP-PAPA-R2c-F6-H6 (VHH)
VHH: QVQLVESGGGLVQPGGSLRLSCAASGRILAANIVHWYRQAPGKEREGVAGITTGGSNYYSDSVKGRFTISRDNAKNTVYLQMNSLKPEDTAVYYCNALGLGSASGSYESWGQGTQVTVSS
notes: Form: Trimer
[5]
  Pseudovirus neutralization IC50: 36.8 nM
[6]
  Pseudovirus inhibition IC50 [Cont. 1]: 63.8 nM
[4]
  infectivity % under 10 ug/mL VHH treatment: 18.1%

B14: PP1132 MBP-4B0F-PAPA-R2c-F6-H6 (VHH)
VHH: QVQLVESGGGLVQPGGSLRLSCAASGRILAANIVHWYRQAPGKEREGVAGITTGGSNYYSDSVKGRFTISRDNAKNTVYLQMNSLKPEDTAVYYCNALGLGSASGSYESWGQGTQVTVSS
notes: Form: Heptamer
[5]
  Pseudovirus neutralization IC50: 4.14 nM
[6]
  Pseudovirus inhibition IC50 [Cont. 1]: 5.66 nM
[4]
  infectivity % under 10 ug/mL VHH treatment: 2.65%

B15: PP1897 Cerberbody (3-S3b-C8) (other, not shown: large carriers)
chain 1: QVQLVESGGGLVQPGGSLRLSCAASGSIENIERMHWYRQAPGKQRELVAVIDSGGTTRYADSVKGRFTISRDNAKNTVYLQMNSLKPEDTAVYYCAAVWLTNAESTQEYWGQGTQVTVSSHHHHHH
chain 2: QVQLVESGGGLVQPGGSLRLSCAASGSIENIERMHWYRQAPGKQRELVAVIDSGGTTRYADSVKGRFTISRDNAKNTVYLQMNSLKPEDTAVYYCAAVWLTNAESTQEYWGQGTQVTVSSTVILEYAHRLSQDILSDALQQWASHHHHHHHH
[9]
  Pseudovirus neutralization IC50: 0.09 nM

B16: PP1146 MBP-5HVZ-PAPA-R2d-D3-H6 (VHH)
VHH: QVQLVESGGGLVQPGGSLRLSCAASGHIFSINNAAWVRQAPGKSREGVATIHSGGGTYYSDSVKGRFTISRDNAKNTVYLQMNSLKPEDTAVYYCNAEVSTGAGSRGRVSDVYWGQGTQVTVSS
notes: Form: Dimer
[9]
  Pseudovirus neutralization IC50: 4.17 nM
[5]
  Pseudovirus neutralization IC50: 36.2 nM
[3]
  Pseudovirus neutralization IC50: 6.62 nM
[6]
  Pseudovirus inhibition IC50 [Cont. 1]: 77 nM
[4]
  infectivity % under 10 ug/mL VHH treatment: 32.8%

B17: PP1134 MBP-4B0F-PAPA-R2d-D3-H6 (VHH)
VHH: QVQLVESGGGLVQPGGSLRLSCAASGHIFSINNAAWVRQAPGKSREGVATIHSGGGTYYSDSVKGRFTISRDNAKNTVYLQMNSLKPEDTAVYYCNAEVSTGAGSRGRVSDVYWGQGTQVTVSS
notes: Form: Heptamer
[5]
  Pseudovirus neutralization IC50: 3.97 nM
[6]
  Pseudovirus inhibition IC50 [Cont. 1]: 5.99 nM
[4]
  infectivity % under 10 ug/mL VHH treatment: 10.9%

B18: PP1181 R2d-D3-PP7-H6 (VHH)
VHH: QVQLVESGGGLVQPGGSLRLSCAASGHIFSINNAAWVRQAPGKSREGVATIHSGGGTYYSDSVKGRFTISRDNAKNTVYLQMNSLKPEDTAVYYCNAEVSTGAGSRGRVSDVYWGQGTQVTVSS
[5]
  Pseudovirus neutralization IC50: 6.95 nM
[6]
  Pseudovirus inhibition IC50 [Cont. 1]: 5.61 nM
[4]
  infectivity % under 10 ug/mL VHH treatment: 1.57%

B19: PP1158 MPB-scTRP-PAPA-R2d-D3-H6 (VHH)
VHH: QVQLVESGGGLVQPGGSLRLSCAASGHIFSINNAAWVRQAPGKSREGVATIHSGGGTYYSDSVKGRFTISRDNAKNTVYLQMNSLKPEDTAVYYCNAEVSTGAGSRGRVSDVYWGQGTQVTVSS
notes: Form: Trimer
[5]
  Pseudovirus neutralization IC50: 27.4 nM
[6]
  Pseudovirus inhibition IC50 [Cont. 1]: 123 nM
[4]
  infectivity % under 10 ug/mL VHH treatment: 28.8%

B20: PP1135 MBP-4B0F-PAPA-R5a-B7-H6 (VHH)
VHH: QVQLVESGGGLVQPGGSLRLSCAASGAFFSYGAIHWFRQAPGKQREEVAAITSGGSTGYADSVKGRFTISRDNAKNTVYLQMNSLKPEDTAVYYCNAGVVWLPSNAAYNLWGQGTQVTVSS
notes: Form: Heptamer
[5]
  Pseudovirus neutralization IC50: 0.533 nM
[4]
  infectivity % under 10 ug/mL VHH treatment: -0.03%
[10]
  Pseudovirus inhibition IC50 [Cont. 6]: 2.13 nM

B21: PP1159 MPB-scTRP-PAPA-R5a-B7-H6 (VHH)
VHH: QVQLVESGGGLVQPGGSLRLSCAASGAFFSYGAIHWFRQAPGKQREEVAAITSGGSTGYADSVKGRFTISRDNAKNTVYLQMNSLKPEDTAVYYCNAGVVWLPSNAAYNLWGQGTQVTVSS
notes: Form: Trimer
[5]
  Pseudovirus neutralization IC50: 31.9 nM
[4]
  infectivity % under 10 ug/mL VHH treatment: 17.7%
[10]
  Pseudovirus inhibition IC50 (second row with the same construct name) [Cont. 6]: 215 nM
  Pseudovirus inhibition IC50 [Cont. 6]: 7.98 nM
